Experimental data as given in article PMC8583167 (Oncoimmunology, 2021).
Residue numbers refer to the chain shown, from its start.

B1: sdAb9 (VHH)
VHH: QVQLQESGGGLVQPGGSLRLSCAASGSIFSILSMGWYRQAPGKQRELVASITNGGSTNYADSVKGRFTIFRDNAKNTVDLQMNSLKPEDTAVYYCNARPPRADLWGQGTQVTVSS
B2: sdAb3 (VHH)
VHH: QVQLQESGGGLVQPGGSLRLSCAASGSIFSIYAMDWYRQAPGKQRELVARITSDGSTNYADSVKGRFTISRDNAKNAVYLQMNSLKPEDTAVYYCVAEQSLGEHTLRDWGQGTQVTVSS
B3: sdAb4 (VHH)
VHH: B2 VHH with L11F, I31V, D35G, R50A, S53R, D54G, T57A
B4: sdAb6 (VHH)
VHH: QVQLQESGGGLVQPGGSLRLSCAASGSIFSILAMGWYRQAPGKQRELVASVTNGGSTNYADSVKGRFTISRDNAKNTVYLQMNSLKPEDTAVYYCNVRPYSDYDSWGHGTQVTVSS
B5: sdAb8 (VHH)
VHH: B4 VHH with S62F, A74V, S105Y, H108Q
B6: sdAb7 (VHH)
VHH: B4 VHH with H108Q
B7: sdAb10 (VHH)
VHH: QVQLQESGGGLVQPGGSLRLSCAASGSIFSIYAMGWYRQAPGKQRELVAGITSGGSTHYADSVKGRFTISRDNAKNSVYLQMNSLKPEDTAVYYCNSDLDPPSGTYYPALWSWGQGTQVTVSS
B8: sdAb2 (VHH)
VHH: QVQLQESGGGLVQPGGSLKLSCAASGSIASIYAMGWYRQAPGKQRELVATISSDGSTNYADSVKGRFTISRNNTDNTVCLQMNSLKPEDTALYTCITEQFLGDHTLRDWGQGTQVTVSS
B9: anti-mCS1 sdAb1, untagged (VHH)
VHH: QVQLQESGGGLVQPGGSLRLSCAASGFTFSSTAMSWARQAPGKGLEWVSSIYSDGSTSYADSMKGRSTISRDNAKNTVYLQMNSLKPEDTAVYYCAIGDTGWGRVGQGTQVTVSS
B10: sdAb5 (VHH)
VHH: QVQLQESGGGLVQPGGSLRLSCAVSRSIFSFYAMGWYRQAPGKERELVARIISGGSTNYADSVKGRFTIARDNAKNTVYLQMNSLKPEDTAVYYCVAEQFLNDFTLRDWGQGTQVTVSS

What was measured:
[1] = target: T1, mCS1-His (Mus musculus, strain , UniProt Q8BHK6)
[2] = target: T1, mCS1-His; experiment: SPR

T1 sequence (Q8BHK6 23-333): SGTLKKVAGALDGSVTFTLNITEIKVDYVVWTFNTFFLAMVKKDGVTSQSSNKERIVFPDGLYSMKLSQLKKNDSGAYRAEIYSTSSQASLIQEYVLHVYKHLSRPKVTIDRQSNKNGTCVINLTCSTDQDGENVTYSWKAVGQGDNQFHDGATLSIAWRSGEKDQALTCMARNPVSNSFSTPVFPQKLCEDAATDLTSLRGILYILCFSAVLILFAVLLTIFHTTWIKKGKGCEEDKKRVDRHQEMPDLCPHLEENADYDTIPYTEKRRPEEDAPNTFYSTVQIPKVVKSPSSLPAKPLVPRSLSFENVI

Row | Binder | binding result [1] | Kd [2] [nM]
1 | B1 | binds | –
2 | B2 | binds | –
3 | B3 | binds | –
4 | B4 | binds | –
5 | B5 | binds | –
6 | B6 | binds | –
7 | B7 | binds | –
8 | B8 | binds | –
9 | B9 | – | 25
10 | B10 | binds | –
